Assay results from patent US20220193133A1.

Molecular target: D04-his tagged VHH (humanized D04)
Assay: Octet (BLI), anti-idiotype VHH-Fc vs his-tagged VHH; table title prints B11-his, paragraph 353 ties these values to D04

B1: AMD71 (huB11_CNTY3+4_A02 anti-idiotype VHH IgG1-Fc fusion) (Fc fusion, not shown: a dimerising Fc or GST)
chain: EVQLLESGGGLVQPGGSLRLSCAASGRTYTGSAMGWYRQAPGKERELVSAISTGGETYYADSVKGRFTISRDNSKNTLYLQMNSLRAEDTAVYYCAAGYVGLPYTYRPATSRRGYTYWGQGTQVTVSS
  Response: 0.0062
  koff: < 1e-07 s⁻¹
  kon: 2160 M⁻¹ s⁻¹
